The values that follow are results of earlier work, collected in PMC5662943.

pKd: −log10 of the molar value.

For this data set, the target named is PCNA (Homo sapiens) (UniProt P12004).
UniProt P12004, sequence (P12004 whole entry): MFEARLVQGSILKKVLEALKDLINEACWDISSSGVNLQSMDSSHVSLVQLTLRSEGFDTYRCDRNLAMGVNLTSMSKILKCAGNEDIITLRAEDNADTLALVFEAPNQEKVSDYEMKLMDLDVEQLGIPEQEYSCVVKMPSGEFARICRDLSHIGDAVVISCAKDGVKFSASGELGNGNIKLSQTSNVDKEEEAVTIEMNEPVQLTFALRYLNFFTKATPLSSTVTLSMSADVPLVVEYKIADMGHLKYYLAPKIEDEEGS

Consider RFC (from UniProt P35251), for which the negative-log Kd (pKd) was 9.70.

For orientation: pKd means −log10 of the Kd, conventionally taken in molar units.
